From patent US10370647B2 (priority 2015, dated 2019)

Tests used:
ERK = assay: Change in pERK/tERK by EGF stimulation (In-Cell ELISA); format: cell-based; conditions: all cells (Low, UCA1 Low, Empty Low, KFtx); 0.2 ng/μl EGF, 30 minutes; 10% or 0.5% FBS
Protocol: The KFtx series (Low, UCA1 Low, Empty Low, and KFtx) were seeded at a cell density of 6×10^3/well in 10% FBS-containing RPMI on a 96-well plate, and were then cultured at 37° C. for 12 hours. Thereafter, the medium was exchanged with RPMI containing 10% FBS or 0.5% FBS. The cells were further cultured at 37° C. for 24 hours, and the medium was then exchanged with another one, to result in an EGF concentration of 0.2 ng/μl. After 30 minutes of EGF stimulation, tERK (total-ERK) and pERK (phosphorylated-ERK) were measured using Pierce Colorimetric In-Cell ELISA Kits (n=3). […] In addition, it was confirmed that, in all cells, pERK was activated by EGF stimulation and the percentage of the pERK was increased.

KFtx series = format: cell-based; conditions: 72 hours

B1: EGF (protein, UniProt P01133 23-1207, looked up)
Pro-epidermal growth factor: PQHWSCPEGTLAGNGNSTCVGPAPFLIFSHGNSIFRIDTEGTNYEQLVVDAGVSVIMDFHYNEKRIYWVDLERQLLQRVFLNGSRQERVCNIEKNVSGMAINWINEEVIWSNQQEGIITVTDMKGNNSHILLSALKYPANVAVDPVERFIFWSSEVAGSLYRADLDGVGVKALLETSEKITAVSLDVLDKRLFWIQYNREGSNSLICSCDYDGGSVHISKHPTQHNLFAMSLFGDRIFYSTWKMKTIWIANKHTGKDMVRINLHSSFVPLGELKVVHPLAQPKAEDDTWEPEQKLCKLRKGNCSSTVCGQDLQSHLCMCAEGYALSRDRKYCEDVNECAFWNHGCTLGCKNTPGSYYCTCPVGFVLLPDGKRCHQLVSCPRNVSECSHDCVLTSEGPLCFCPEGSVLERDGKTCSGCSSPDNGGCSQLCVPLSPVSWECDCFPGYDLQLDEKSCAASGPQPFLLFANSQDIRHMHFDGTDYGTLLSQQMGMVYALDHDPVENKIYFAHTALKWIERANMDGSQRERLIEEGVDVPEGLAVDWIGRRFYWTDRGKSLIGRSDLNGKRSKIITKENISQPRGIAVHPMAKRLFWTDTGINPRIESSSLQGLGRLVIASSDLIWPSGITIDFLTDKLYWCDAKQSVIEMANLDGSKRRRLTQNDVGHPFAVAVFEDYVWFSDWAMPSVMRVNKRTGKDRVRLQGSMLKPSSLVVVHPLAKPGADPCLYQNGGCEHICKKRLGTAWCSCREGFMKASDGKTCLALDGHQLLAGGEVDLKNQVTPLDILSKTRVSEDNITESQHMLVAEIMVSDQDDCAPVGCSMYARCISEGEDATCQCLKGFAGDGKLCSDIDECEMGVPVCPPASSKCINTEGGYVCRCSEGYQGDGIHCLDIDECQLGEHSCGENASCTNTEGGYTCMCAGRLSEPGLICPDSTPPPHLREDDHHYSVRNSDSECPLSHDGYCLHDGVCMYIEALDKYACNCVVGYIGERCQYRDLKWWELRHAGHGQQQKVIVVAVCVVVLVMLLLLSLWGAHYYRTQKLLSKNPKNPYEESSRDVRSRRPADTEDGMSSCPQPWFVVIKEHQDLKNGGQPVAGEDGQAADGSMQPTSWRQEPQLCGMGTEQGCWIPVSSDKGSCPQVMERSFHMPSYGTQTLEGGVEKPHSLLSANPLWQQRALDPPHQMELTQ
modifications: Pro-epidermal growth factor
In the case of B1, the “percentage of the pERK” value (ERK) is reported as “increased” and the “replication ability of the vaccinia virus by EGF stimulation” value (KFtx series) is reported as “not enhanced”.
